How the values were obtained:
Assay type in all cases: biochemical
[1] = molecular target: T1, aFGF (Homo sapiens, UniProt P05230); assay: Thermal denaturation (Tm) of aFGF by circular dichroism; settings: buffer alone
T1 construct: The recombinant derived, 140 amino add form is the preferred form of aFGF; N-terminal methionine (MetHaFGF); made in house; host or cells: microbial cells (preferred embodiment)
Procedure: Circular Dichroism (CD) spectra are measured with an AVIV 62 DS spectropolarimeter. Samples of aFGF at about 100 μg/ml in a PBS buffer (6 mM sodium phosphate, 120 mM NaCl, pH 7.2) containing various ligands are placed into 1 mm pathlength cells and the cell temperature is controlled by circulating a water/ethylene glycol mixture through the cell holder. Thermal denaturation is carded out under computer control by increasing the temperature of the water bath in 2° C. increments, followed by a two-minute equilibration period at each temperature to allow the sample to reach thermal equilibrium. Reproducibility of the midpoint of these temperature melting curves (Tm) is ±2° C.
The maximum Tm values induced by 12 different ligands as determined by circular dichroism measurements at 228 nm are summarized in the first column of Table II. All of these ligands stabilize aFGF by 15°-25° C. in a manner similar to that originally observed with heparin. […] Furthermore, sulfate unions are found near analogous residues in the crystal structure of basic FGF, Eriksson et al., Proc. Natl. Acad. Sd. USA 88:3441-3445 (1991); Zhang et al., Proc. Natl. Acad. Sci. USA 88:3446-3450 (1991). Consequently, it seemed important to examine the ability of these ligands to stabilize aFGF during thermal denaturation as monitored by both fluorescence and circular dichroism. The Tm value of aFGF increased from 27° C. to 43° C. (fluorescence)and 45° C. to 51° C. (CD) when a 100 molar excess (3X by weight) of (IrCl6)^-3 was present. Similarly, sulfate union (120 mM) produced a species that was even more dramatically stabilized, melting at 57° C. (CD).
^(a) Thermal melting temperatures were measured by circular dichroism
Samples contained […] aFGF in PBS buffer pH 7.2 with excess ligand
(1-3× by weight except for 120 mM sodium sulfate and 10 mM

[2] = molecular target: T1, aFGF; assay: Copper-catalyzed oxidation of aFGF thiol groups
Procedure: Copper-catalyzed oxidation of aFGF is carried out in the following manner. Acidic FGF (about 80 μg/ml) is incubated in a 20 mM Tris, 0.15M potassium chloride, pH 8 solution containing about 20 μM cuptic chloride for varying periods of time at room temperature. The reaction was terminated by the addition of 100 mM EDTA in the same buffer. A solution of about 0.7 ml of 0.25M Tris (about pH 8) containing about 2 mM EDTA and about 7 M GuHC1 is then added followed by about 35 μl of 4 mg/ml of DTNB (Sigma). Samples were incubated for 30 minutes, filtered through a 0.22 micron filter and the optical density measured at about 412 nm to determine sulfhydryl content, Riddles et al., Meth. Enzymol. 9:49-60 (1983). Relative standard deviation of the obtained values during time course experiments is 12%.
Acidic FGF contains three free cysteine residues at positions […], 83 and 117 in the polypeptide chain. […] It has also been shown that the copper catalyzed oxidative formation of a disulfide bond in the wild-type aFGF inactivates the protein in an in vitro mitogenic assay, Ortega et al., J. Biol. Chem. 266:5842-5846 (1991). Therefore, it was of interest to determine the extent to which heparin can stabilize aFGF against inactivation by oxidation. […] Samples contained 80 μg/ml aFGF with (a) 3X heparin by weight, (b) 0.1X heparin by weight and (c) buffer alone. As heparin was introduced and its concentration increased, the rate of copper-catalyzed oxidation decreased. For example, after 20 minutes, greater than 95% of the cysteine residues of aFGF are protected from oxidation with 3X heparin. FIG. 4B illustrates the fraction of remaining reactive thiol groups after a 10-minute incubation with cupric chloride as a function of heparin concentration.
Some aggregation of aFGF occurs under the conditions of these experiments presumably due to at least partial intermolecular disulfide formation. Thus, these measurements could simply be a measurement of the loss of solubility induced by copper association with aFGF. Several experiments, however, argue against this possibility. First, previous work has shown that at dilute protein concentration, copper does indeed catalyze oxidation of thiol groups of aFGF, Ortega et al., J. Biol. Chem. 266:5842-5846 (199 1 ). Second, as a control experiment, the copper-catalyzed oxidation of aFGF was carded out in a buffer containing 6 M GuHCl. Under these denaturing conditions, nearly 100% of the thiol groups in solution were lost after 10 minutes without visible aggregation. […] Regardless of the precise mechanism, copper addition is a distinct mechanism of inactivation compared to thermal stress.
Similar protection against oxidation experiments were carried out with other negatively charged compounds with an excess of ligand (3X by weight except for sodium sulfate at 120 mM and tetrapolyphosphate at 10 mM) added to aFGF before copper catalyzed oxidation. As shown in the second column of Table 2, all of these agents at least partially protect the cysteine residues of aFGF from oxidation.
^(b) Percentage of aFGF thiols remaining in solution after 10 min
incubation with cupric chloride. Experimental conditions are described in
FIG. 10. All samples contained ligand at 3× (by weight) except
sodium sulfate (120 mM) and tetrapolyphosphate (10 mM).

[3] = molecular target: T1, aFGF; assay: Copper-catalyzed oxidation of aFGF thiol groups; settings: 6 M GuHCl, 10 minutes, 1 μM CuCl2, 5 μM aFGF
[4] = molecular target: T1, aFGF; assay: Thermal denaturation (Tm) of aFGF by fluorescence spectroscopy; settings: no heparin, PBS pH 7.2
Procedure: Fluorescence spectra are obtained with a Spex Fluorolog-2 spectrofiuorometer using a 1 mm pathlength cuvette. Band passes from 1-2 nm are employed with sample absorptivities maintained below 0.1 at 280 nm. The temperature is controlled either manually or automatically as described above. Reproducibility of thermal denaturation temperatures (Tm) is ± 2° C.
To more directly ascertain the effect of heparin on aFGF stability, the temperature-induced denaturation of aFGF as a function of heparin concentration was monitored by fluorescence spectroscopy. Fluorescence spectra were obtained with a Spex Fluorolog-2 spectrofiuorometer using a 1 mm pathlength cuvette. Band passes from 1-2 nm were employed with sample absorptivities maintained below 0.1 at 280 nm. The temperature was controlled either manually or automatically as described above. Reproducibility of thermal denaturation temperatures (Tm) was ±2° C. […] Experiments were carried out at 100 μg/ml protein (6.3 μM) in a PBS buffer at pH 7.2. Curve drawn through data points for clarity only.
Studies of the stabilization of aFGF by heparin are difficult to interpret because of the inherent heterogeneity of heparin preparations, Lane and Lindahl, Eds. Heparin, Chemical and Biological Properties, Clinical Applications, Edward Arnold, London (1989); Jackson, et al., Physiol. Rev. 71: 481-539 (1991). In order to better understand the polyanionic stabilization of aFGF, a series of well-defined fragments of heparin were examined for their ability to stabilize aFGF against thermal denaturation. These enzymatically prepared and purified fragments varied in size from a disaccharide to a decasaccharide. Each fragment was incubated with aFGF at a 1:1 weight ratio in a PBS buffer. The sample was then stressed by temperature and structural changes in aFGF were monitored by both circular dichroism and fluorescence spectroscopy. […] All samples contained 100 μg/ml aFGF (6.3 μM)in a PBS buffer (pH 7.2) with 100 μg/ml of each heparin fragment.
Since these fragments of heparin have a well-defined molecular weight, the molar ratio of aFGF to ligand during these thermal denaturation experiments can be calculated. The Tm of aFGF as a function of the molar concentration of the hexasaccharide was measured by fluorescence spectroscopy. Fluorescence spectra were obtained with a Spex Fluorolog-2 spectrofiuorometer using a 1mm pathlength cuvette. Band passes from 1-2 nm were employed with sample absorptivities maintained below 0.1 at 280 nm. The temperature was controlled either manually or automatically as described above. Reproducibility of thermal denaturation temperatures (Tm) was ±2° C.
Analogous to the heparin experiments illustrated in Example 1 (FIG. 3), aFGF thermal stability was monitored by fluorescence spectroscopy as a function of concentration for several other of the polyanions. […] All samples contained 100 μg/ml of aFGF (6.3 μM) in a PBS buffer at pH 7.2.

T1 sequence (P05230 16-155 limits assumed): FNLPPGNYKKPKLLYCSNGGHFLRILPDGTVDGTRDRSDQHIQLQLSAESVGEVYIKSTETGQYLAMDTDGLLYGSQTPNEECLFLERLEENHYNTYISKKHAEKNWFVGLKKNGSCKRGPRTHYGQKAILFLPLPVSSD

Substance: aFGF: human acidic fibroblast growth factor, molecular mass of about 15.9 kDa
- Tm of aFGF, circular dichroism [1]: 45 °C
- thiol groups of aFGF lost ([2]; 6 M GuHCl, 10 minutes): ~100%
- free thiols of aFGF lost ([2]; 10-minute incubation, absence of polyanions): 60%
- total thiol groups of aFGF reacted ([2]; buffer alone, after 6 hours, cupric chloride): 70-75%
- thiol groups of aFGF oxidized ([2]; buffer alone, within several minutes, cupric chloride): 50-60%
- loss of thiol groups of aFGF [3]: 10%
- thermal denaturation temperature (Tm) of aFGF, fluorescence [4]: 27 °C
- thermal denaturation temperature (Tm) of aFGF, fluorescence ([4]; listed as native aFGF): < 30 °C

From patent US5348941A, “Stabilizers for fibroblast growth factors” (Merck & Co., Inc., priority 1992, dated 1994)
